The values below are quoted from earlier work in article PMC4632993.

What is called Kd is a measure of binding affinity in units of concentration.

The target of the data set is ubiquitin (Homo sapiens) (UniProt P0CG47).

Chain of MDA-9/Syntenin (O00560 2-298): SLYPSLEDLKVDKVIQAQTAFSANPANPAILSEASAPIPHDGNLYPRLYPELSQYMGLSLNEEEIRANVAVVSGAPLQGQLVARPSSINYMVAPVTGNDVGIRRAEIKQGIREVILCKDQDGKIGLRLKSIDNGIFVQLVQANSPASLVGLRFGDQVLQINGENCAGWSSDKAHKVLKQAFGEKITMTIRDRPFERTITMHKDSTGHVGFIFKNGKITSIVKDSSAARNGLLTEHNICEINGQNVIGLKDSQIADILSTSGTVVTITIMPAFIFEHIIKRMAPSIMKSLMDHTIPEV

Consider MDA-9/Syntenin (from UniProt O00560), for which the equilibrium dissociation constant (Kd) is 27.3 µM.
